Test results from paper PMC3143260 (2012).
Read-outs that look alike come from different tables or passages of the source. Each block holds one binder with its values, some of them ahead of it.

Assays:
RPP21 [1] = target: T1, RPP21 (Pyrococcus furiosus, UniProt Q8U0H6); assay: ITC
T1 chain: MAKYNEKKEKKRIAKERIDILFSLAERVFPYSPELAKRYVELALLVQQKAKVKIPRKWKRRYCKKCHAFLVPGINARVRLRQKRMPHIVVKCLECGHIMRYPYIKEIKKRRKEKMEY

RPP21 [2] = target: T1, RPP21; assay: ITC

- Kd (RPP21 [1]): 250 nM
- Kd (RPP21 [2]): 250 nM
B1: RPP29 1-127 (protein)
chain: MWRNSEERENRTSGRSQGSYQEIIGRTWIFRGAHRGRVNKKNIVWHELIGLKVRVVNSTHPGYVGIEGYVIDETRNMLVIAGENKVWKVPKDVCIFEFETWDGTKIKISGEKLVGRPEMRLKKRWRK

- Kd (RPP21 [2]): 230 nM
B2: RPP29 18-127 (protein)
chain: GSYQEIIGRTWIFRGAHRGRVNKKNIVWHELIGLKVRVVNSTHPGYVGIEGYVIDETRNMLVIAGENKVWKVPKDVCIFEFETWDGTKIKISGEKLVGRPEMRLKKRWRK
